To fix the notation:
T1: extracellular domain of cyno ILT3 (cynoILT3-ECD) (cynomolgus monkey)
T1 chain: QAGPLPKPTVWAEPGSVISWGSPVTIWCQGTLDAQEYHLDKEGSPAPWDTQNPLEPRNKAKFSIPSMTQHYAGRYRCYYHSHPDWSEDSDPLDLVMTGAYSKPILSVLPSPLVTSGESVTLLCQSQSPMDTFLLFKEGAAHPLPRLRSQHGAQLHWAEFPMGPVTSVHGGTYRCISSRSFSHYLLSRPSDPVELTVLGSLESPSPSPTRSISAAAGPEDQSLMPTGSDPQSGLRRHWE

B1: 48A6 chimera (antibody, V domains shown)
VH: EVQLVESGGDLMKPGGSLKLSCAASGFTFSSYGMSWVRQTPDKRLEWVATISSGGTYTFYPDSVKGRFTISRDNAKNTLYLQMSSLKSEDTAMYYCARRGWLLHYYAMDYWGQGTSVTVSS
VL: NIVLTQSPASLAVSLGQRATISCRPSESVDSFGNSFMHWFQQKPGQPPKLLIYLSSKLESGVPARFSGSGSRTDFTLTIDPVEADDAATYYCQQHNEDPFTFGSGTKLEIK
notes: also called parental chimeric 48A6
B2: 45G10 chimera (antibody, V domains shown)
VH: EVQLVESGGGLVKPGGSLKLSCAASGFTFSDYGMHWVRQAPEKGLEWVAYIFSGSSTIYYADTVKGRFTISRDNAKNTLFLQMTSLRSEDTAMYYCARADGRGAMDYWGQGTSVTVSS
VL: DVQMTQTTSSLSASLGDRVTISCRASQDISKFLNWYQQKPDGTVTLLIYYTSRLHSGVPSRFSGSGSGTDYSLTISNLDQEDIATYFCQQGNTLPWTFGGGTKLEIK
notes: also called parental chimeric 45G10
B3: Hz45G10 A2/A4 (antibody, V domains shown)
VH: B2 VH with K13Q, K19R, E42G, T78S, F80Y, T84N, S88A, M93V, S113T
VL: DIQMTQSPSSLSASVGDRVTITCRASQDISKFLNWYQQKPGKAPKLLIYYTSRLHSGVPSRFSGSGSGTDFTFTISSLQPEDIATYFCQQGNTLPWTFGGGTKLEIK
B4: Hz45G10 B1/A4 (antibody, V domains shown)
VH: B2 VH with K19R, E42G, A49S, T78S, F80Y, T84N, S88A, M93V, S113L
VL: B3 VL
B5: Hz48A6 C1/C2 (antibody, V domains shown)
VH: EVQLVESGGGLVQPGGSLRLSCAASGFTFSSYGMSWVRQAPGKGLEWVATISSGGTYTFYPDSVKGRFTISRDNSKNTLYLQMNSLRAEDTAVYYCARRGWLLHYYAMDYWGQGTLVTVSS
VL: DIQLTQSPSFLSASVGDRVTITCRPSESVDSFGNSFMHWFQQKPGKAPKLLIYLSSKLESGVPSRFSGSGSGTEFTLTISSLQPEDFATYYCQQHNEDPFTFGQGTKVEIK
B6: Hz48A6 B1/C2 (antibody, V domains shown)
VH: B5 VH with V12M, S75A, T78S, L116S
VL: B5 VL
B7: Hz48A6 B0/C2 (antibody, V domains shown)
VH: B5 VH with S75A, T78S, L116S
VL: B5 VL
B8: Hz48A6 C0/C2 (antibody, V domains shown)
VH: B5 VH with A49G
VL: B5 VL
B9: Hz48A6 C2/C2 (antibody, V domains shown)
VH: B5 VH with V12M
VL: B5 VL
B10: Hz5A7.v1 (humanized 5A7 without any CDR modifications) (antibody, V domains shown)
VH: EVQLVESGGGLVQPGGSLRLSCAASGFTFSSYGMSWVRQAPGKGLEWVATISGGGSYTNYPDSVKGRFTISRDNAKNSLYLQMNSLRAEDTAVYYCARREWRMTLYAMDYWGQGTTVTVSS
VL: B5 VL with P25A, F32Y, F40Y, S55T, K57N, H95N, V108L
B11: anti-ILT3 antibody 45G10 (antibody, V domains shown)
VH: B2 VH
VL: B2 VL
notes: Mouse monoclonal antibody from hybridoma
B12: anti-ILT3 antibody 3A3 (antibody, V domains shown)
VH: QVQLKESGPGLVAPSQSLSITCTVSGFSLTSYGVHWVRQPPGKGLEWLGVIWPGGTINYNSALMSRLSISKDNSKSQVFLKLNSLQTDDTAMYYCASDKYDGGWFAYWGQGTLVTVSA
VL: DIVMTQSQKFMSTSVGDRVSITCKASQNVRTAVAWYQQKPGQSPEALIYLASNRHTGVPDRFTGSGSGTDFSLSISNVQSEDLADYFCLQHLNYPLTFGSGTKLEIK
notes: as for B11
B13: anti-ILT3 antibody 12A12 (antibody, V domains shown)
VH: EVQLQQSGPELVKPGASVKISCKASGYTFTDYNMDWVKQSHGKSLEWIGYIYPNNGGTGYNQKFNSKATLTVDKSSSTAYMELHSLTSEDSAVYYCASSPYYDYVGSYAMDYWGQGTSVTVSS
VL: QIVLTQSPAIMSASLGERVTMTCTASSSVSSSYLHWYQQKPGSSPKLWIYSTSNLASGVPARFSGSGSGTSYSLTISSMEAEDAATYYCHQYHRSPRTFGGGTKLEIK
notes: as for B11

Where a chain is given by its changes, count along the chain named.

In US20240043533A1 (NGM BIOPHARMACEUTICALS, published 2024) one finds Kd, koff and kon data, which are given here for 13 molecules.

The target in one test is T2, extracellular domain of human ILT3 (huILT3-ECD) (human, UniProt Q8NHJ6 22-259).
T2 construct: also called human ILT3-ECD
Briefly: SPR (Biacore), antibody captured via anti-Fc on CM5 chip, soluble ILT3-ECD injected. How it is done: (§1) The binding affinities of anti-ILT3 antibodies to human ILT3 and cyno ILT3 were measured using a Biacore system (GE Healthcare LifeSciences). Briefly, anti-Fc antibody (Sigma-Aldrich) was immobilized on all four flow cells of a CM5 chip using amine coupling reagents (GE Healthcare LifeSciences). Antibodies were captured on flow cells 2, 3, and 4 using flow cell 1 as a reference. Concentrations ranging from 3.3-10 nM of human or cyno ILT3-ECD were injected at a flow rate of 50 μL/min at 37° C. Kinetic data were collected over time and fit using the simultaneous global fit equation to yield affinity constants (KD values) for each antibody.
(§2) The binding affinities of various Hz48A6 and Hz45G10 antibodies to human ILT3 and cyno ILT3 were also determined using a Biacore system as described herein. Humanized antibodies comprising various combinations of a heavy chain variable region and a light chain variable region and a human Fc domain were tested, and compared with the binding affinity of the parental chimeric antibody (48A6 chimera comprising mouse 48A6 heavy and light variable regions and a human Fc domain, or 45G10 chimera comprising mouse 45G10 heavy and light variable regions and a human Fc domain).
(SPR reads the build-up and loss of mass on a sensor chip optically.)
As a reminder, the Kd is the concentration at which binding is half-saturated. The koff is the rate constant with which the complex falls apart. One may read the kon as the rate constant with which the complex forms. Take B1: the Kd was 0.066 nM, the koff is 0.000868 s⁻¹ and the kon came out at 1.31e+07 M⁻¹ s⁻¹.

B2: the Kd was found to be 0.14 nM, the koff was 0.00034 s⁻¹ and the on-rate constant (kon) was 2.3e+06 M⁻¹ s⁻¹.

As for B3, the Kd worked out at 0.2 nM, the koff worked out at 0.00028 s⁻¹ and the kon was determined as 1.4e+06 M⁻¹ s⁻¹.

For B4, the Kd turned out to be 0.2 nM, the koff is 0.00026 s⁻¹ and the kon came out at 1.3e+06 M⁻¹ s⁻¹.

As to B5, the Kd is 0.26 nM, the koff turned out to be 0.000705 s⁻¹ and the kon amounted to 2.72e+06 M⁻¹ s⁻¹.

For the molecule B6, the Kd was 0.25 nM, the koff came out at 0.000764 s⁻¹ and the kon is 3.05e+06 M⁻¹ s⁻¹.

Consider B7, for which the Kd came out at 0.28 nM, the koff is 0.000784 s⁻¹ and the kon came to 2.8e+06 M⁻¹ s⁻¹.

With B8, the Kd was found to be 0.16 nM, the koff came out at 0.000541 s⁻¹ and the kon was 3.45e+06 M⁻¹ s⁻¹.

Regarding B9, the Kd came to 0.24 nM, the koff was found to be 0.000752 s⁻¹ and the kon was found to be 3.06e+06 M⁻¹ s⁻¹.

Another test deals with T1, extracellular domain of cyno ILT3 …. The description is as above. How it is done: as §1, §2
B1: the Kd was determined as 54 nM, the koff amounted to 0.11 s⁻¹ and the kon turned out to be 1.99e+06 M⁻¹ s⁻¹.

For B2, the Kd amounted to 37 nM, the koff was 0.015 s⁻¹ and the kon is 410000 M⁻¹ s⁻¹.

For B3, the Kd is 113 nM, the koff stood at 0.02 s⁻¹ and the kon is 190000 M⁻¹ s⁻¹.

With B4, the Kd came to 76 nM, the koff stood at 0.09 s⁻¹ and the kon amounted to 1.2e+06 M⁻¹ s⁻¹.

Consider B5, for which the Kd is 770 nM, the koff is 0.088 s⁻¹ and the kon was 114000 M⁻¹ s⁻¹.

As for B6, the Kd turned out to be 531 nM, the koff was determined as 0.092 s⁻¹ and the kon is 174000 M⁻¹ s⁻¹.

Regarding B7, the Kd came to 455 nM, the koff was 0.097 s⁻¹ and the kon turned out to be 213000 M⁻¹ s⁻¹.

On to B8, for which the Kd is 177 nM, the koff came out at 0.058 s⁻¹ and the kon was determined as 327000 M⁻¹ s⁻¹.

Turning to B9, the Kd came to 377 nM, the koff amounted to 0.082 s⁻¹ and the kon is 217000 M⁻¹ s⁻¹.

A further test deals with T2, extracellular domain of human ILT3 …. Briefly: SPR (Biacore), antibody captured via anti-Fc on CM5 chip, soluble ILT3-ECD injected, 37 C. How it is done: as §1
(§3) The binding affinity of Hz5A7.v5 to human ILT3 and cyno ILT3 was determined using a Biacore system as described herein and compared with the binding affinity of the parental chimeric 5A7 (ch5A7) antibody and humanized 5A7 without any CDR modifications (Hz5A7.v1) (see Table 12).
Turning to B10, binding was put at a Kd of 0.48 nM, the koff stood at 0.0012 s⁻¹ and the kon was determined as 2.5e+06 M⁻¹ s⁻¹.

For a further test, the target named is T1, extracellular domain of cyno ILT3 …. The description is as above. How it is done:
as §1, §3
On to B10, for which the Kd was 0.65 nM, the koff turned out to be 0.0077 s⁻¹ and the kon came to 1.2e+07 M⁻¹ s⁻¹.

The target in another test is T2, extracellular domain of human ILT3 …. The test is described as above. The source holds these as a separate data set. How it is done:
as §1
With B11, the Kd was determined as 0.13 nM, the koff turned out to be 5.1e-05 s⁻¹ and the kon was found to be 390000 M⁻¹ s⁻¹.

Molecule B12 came in with a Kd of 2 nM, a koff of 0.00065 s⁻¹ and a kon of 330000 M⁻¹ s⁻¹.

B13 had a Kd of 8.5 nM, a koff of 0.00094 s⁻¹ and a kon of 110000 M⁻¹ s⁻¹.

In a further test the target is T1, extracellular domain of cyno ILT3 …. The description is as above. The source holds these as a separate data set. How it is done: as §1
In turn, B11 registered a Kd of 5 nM, a koff of 0.00076 s⁻¹ and a kon of 150000 M⁻¹ s⁻¹.

With B12, the Kd is 6.3 nM, the koff turned out to be 0.021 s⁻¹ and the kon amounted to 3.4e+06 M⁻¹ s⁻¹.

Take B13: the Kd is 1.9 nM, the koff is 0.00028 s⁻¹ and the kon stood at 150000 M⁻¹ s⁻¹.
